# Assay results from patent publication US9782486B2, “Albumin conjugated temperature and pH-sensitive multi-block copolymer, a method of preparation thereof and drug delivery system using the same” (Research & Business Foundation Sungkyunkwan University, priority 2014, dated 2017).
# Read-outs that look alike come from different tables or passages of the source.
# Tests used:
# [1] = Zeta potential measurement; type: physicochemical; settings: solution alone, pH 7.4, 1 mg/mL, room temperature
# Method: The zeta potential values of the PAU and PAUBSA conjugates were measured at room temperature by Metasizer Nano ZS instrument (Malvern Instrument). The solution concentrations for all samples were 1 mg/mL and their pH was adjusted to 7.4. The solutions were stabilized at room temperature for 20 minutes before measurement.
# [2] = In vivo lysozyme release, lysozyme in blood serum (ELISA); parameters: species or system male SD rats
# Method: (§1) In order to examine the in vivo release of lysozyme, a sample solution loaded with 250 μL of lysozyme was injected to male SD rats (three rats per group). At predetermined times, blood samples were collected from the caudal vein, centrifuged to obtain blood sera, and stored them at −21° C. until the next analysis. The concentration of the lysozyme in the blood sera was measured using a commercial lysozyme (LZM) ELISA kit (Cusabio, China).
# as §1, with “tunes,” for “times,”
# [3] = cited from earlier work
# [4] = single subcutaneous injection of lysozyme-loaded sample
substance,measurement,setting,value
"lysozyme: chicken egg white lysozyme, model protein loaded into the hydrogels; also injected as plain solution",zeta potential,[1],11.2 mV
same,duration of lysozyme release until serum lysozyme reached the normal level,[2]; [4],within nine days
same,initial burst release of lysozyme in vivo,[2]; [4],initial burst was obviously observed
same,time to reach peak lysozyme level,"[2]; single subcutaneous injection, 10 mg/mL lysozyme",within two days
same,peak lysozyme level in blood,"[2]; single subcutaneous injection, 10 mg/mL lysozyme in the preparation",about 447 ng/mL
same,temperature up to which thermal stability is maintained,[3]; in the presence of an anionic modified polymer,up to 72 °C
same,bioactivity of lysozyme released from PEG-based hydrogels and other polymeric devices,[3]; up to 28 days,about 95%
same,bioactivity of lysozyme released from PEG-based hydrogels and other polymeric devices,[3]; up to 50 days,100%
